This is an account of results in publication PMC8648671.

Test [1] addresses βPix-SH3 mutant-Myc (W43K).
Test [2] addresses Flag-βPix.

B1: Dyn2-GFP (natural protein)
chain: MGNRGMEELIPLVNKLQDAFSSIGQSCHLDLPQIAVVGGQSAGKSSVLENFVGRDFLPRGSGIVTRRPLILQLIFSKTEYAEFLHCKSKKFTDFDEVRQEIEAETDRVTGTNKGISPVPINLRVYSPHVLNLTLIDLPGITKVPVGDQPPDIEYQIKDMILQFISRESSLILAVTPANMDLANSDALKLAKEVDPQGLRTIGVITKLDLMDEGTDARDVLENKLLPLRRGYIGVVNRSQKDIEGRKDIRAALAAERKFFLSHPAYRHMADRMGTPHLQKTLNQQLTNHIRESLPTLRSKLQSQLLSLEKEVEEYKNFRPDDPTRKTKALLQMVQQFGVDFEKRIEGSGDQVDTLELSGGARINRIFHERFPFELVKMEFDEKDLRREISYAIKNIHGVRTGLFTPDLAFEAIVKKQVVKLKEPCLKCVDLVIQELISTVRQCTSKLSSYPRLREETERIVTTYIREREGRTKDQILLLIDIEQSYINTNHEDFIGFANAQQRSTQLNKKRAIPNQGEILVIRRGWLTINNISLMKGGSKEYWFVLTAESLSWYKDEEEKEKKYMLPLDNLKIRDVEKGFMSNKHVFAIFNTEQRNVYKDLRQIELACDSQEDVDSWKASFLRAGVYPEKDQAENEDGAQENTFSMDPQLERQVETIRNLVDSYVAIINKSIRDLMPKTIMHLMINNTKAFIHHELLAYLYSSADQSSLMEESAEQAQRRDDMLRMYHALKEALNIIGDISTSTVSTPVPPPVDDTWLQNTSSHSPTPQRRPVSSVHPPGRPPAVRGPTPGPPLIPMPVGATSSFSAPPIPSRPGPQNVFANNDPFSAPPQIPSRPARIPPGIPPGVPSRRAPAAPSRPTIIRPAEPSLLD
Molecule B1 yielded a Rac1 activity (Rac1-GTP by GST-PBD pull-down) in HEK293T cells transfected with the Flag-tagged SH3 mutant of βPix and Dyn2-GFP in test [1] of 50%. In test [2], this molecule came in with a Rac1 activity (Rac1-GTP by GST-PBD pull-down, against total Rac1) in HEK293T cells transfected with Flag-βPix and Dyn2-GFP, relative to non-transfected cells of 3 fold.
